This note sets out measurements from article PMC8726603.

This experiment concerns the target SUMO-tagged CGAS (human) (UniProt Q8N884). Description: SPR. In general terms: SPR reads the build-up and loss of mass on a sensor chip optically.
Sequence of UniProt Q8N884 (Q8N884 whole entry): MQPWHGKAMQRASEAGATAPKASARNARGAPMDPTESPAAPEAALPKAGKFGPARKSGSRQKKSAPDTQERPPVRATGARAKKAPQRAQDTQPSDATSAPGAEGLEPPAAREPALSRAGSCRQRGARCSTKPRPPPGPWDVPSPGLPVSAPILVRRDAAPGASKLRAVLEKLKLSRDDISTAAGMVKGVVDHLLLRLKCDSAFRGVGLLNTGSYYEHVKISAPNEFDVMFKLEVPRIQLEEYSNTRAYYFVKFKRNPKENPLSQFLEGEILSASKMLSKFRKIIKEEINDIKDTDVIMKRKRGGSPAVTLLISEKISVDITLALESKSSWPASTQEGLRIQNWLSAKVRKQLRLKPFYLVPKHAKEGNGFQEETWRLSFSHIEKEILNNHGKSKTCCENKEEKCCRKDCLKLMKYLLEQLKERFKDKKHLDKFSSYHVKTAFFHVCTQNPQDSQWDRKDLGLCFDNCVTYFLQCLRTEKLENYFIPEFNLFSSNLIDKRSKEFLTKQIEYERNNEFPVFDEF

“His-tagged LC3B (from UniProt Q9GZQ8 1-120) (natural protein; other documents disagree on this pair)” had a dissociation constant (Kd) of 0.17 µM.

What is called Kd is the concentration at which binding is half-saturated. The low end stands for higher affinity, the high end for lower affinity.
